The experiment concerns the target anti-FLAG M2 mouse monoclonal IgG1 (Sigma-Aldrich PN F-3165). Put plainly: capture on a 1 m Protein G capillary, elution with 14.7 mM phosphoric acid pH 2.2, Bradford assay at 595 nm.

Substance “Protein G (CalBiochem, San Diego, Calif., PN 539303) (from UniProt P19909 303-497)” had an amount of IgG trapped and eluted of 2.5 µg.
